Here are results for three proteins from article PMC11601148, “Effects of proline substitution/inclusion on the nanostructure of a self-assembling β-sheet-forming peptide†” (RSC Advances, 2024).

Series [1] concerns the molecule itself. In words: ITC; NaOH (0.0025, 0.0125, 0.025 M) titrated into peptide at 0.1, 0.5 and 1 mg/mL in water, 25 °C; the energy change on deprotonation is read as a sign of self-assembly, no binding constant is fitted. A general note: ITC needs no label: the signal is the heat of the interaction.
Series [2] concerns the molecule itself. In words: SAXS + WAXS; peptide samples at 5 and 10 mg/mL in quartz capillaries, beamline I22 at Diamond Light Source, water as background.

B1: FEFKPEFKF (peptide)
peptide: FEFKPEFKF
notes: FP with one more phenylalanine at the C-terminal end; also called KEP; source: synthetic peptide, bought: Biomatik LLC (HCl salt, >90% purity)
For B1, the binding result in series [1] is reported as “binds”.

B2: FEFKFEFK (peptide)
peptide: FEFKFEFK
notes: also called F8; source: synthetic peptide, bought: Biomatik LLC (HCl salt, >90% purity)
In the case of B2, in series [1], the binding result was “binds”.

B3: FEFEPKFKF (peptide)
peptide: FEFEPKFKF
notes: KPE with the polar residues shuffled: glutamic acids on one side of the proline, lysines on the other; source: synthetic peptide, bought: Biomatik LLC (HCl salt, >90% purity)
In the case of B3, the binding result in series [2] is listed as “binds”.
